In article PMC10594996:

How the values were obtained:
[1] = biological target: NHP IgG (rhesus macaque serum IgG) (rhesus macaque (Macaca mulatta)); assay: SPR; BIAcore X100; Protein A immobilised on a CM5 chip ([…]
human IgG (human) = assay: SPR; BIAcore X100; Protein A immobilised on a CM5 chip (target 5000 RU); human or NHP IgG at 20 µg/ml captured on the test flow cell to 500 RU; various concentrations of recombinant human CD64 flowed at 10 µl/min; control flow cell with Protein A only; regeneration with 10 mM glycine pH 2.0

- Kd [1]: 162 nM
- Kd (human IgG (human)): 21.9 nM
Substance: recombinant human CD64 receptor (from UniProt P12314 16-374)
